Broadly, the Kd is the free concentration of one partner at which half of the binding sites on the other are occupied at equilibrium, for simple one-to-one binding. A high value points to weaker binding.

The target of experiment [1] is T1, EpCAM H13 Mask27 L040 (EpCAM targeting ProTriTAC with H13).
T1 construct: trispecific prodrug: masked anti-albumin sdAb-cleavable linker L040-anti-CD3 scFv-anti-EpCAM sdAb H13-His6; also called H13 ProTriTAC (L040)
The experiment is described as follows: binding assay, affinity summary.

Experiment [2] deals with T2, EpCAM H90 Mask27 L040 (EpCAM targeting ProTriTAC with H90).
T2 construct: trispecific prodrug: masked anti-albumin sdAb-L040-anti-CD3 scFv-anti-EpCAM sdAb H90-His6
T2 sequence (chain, as listed by the source): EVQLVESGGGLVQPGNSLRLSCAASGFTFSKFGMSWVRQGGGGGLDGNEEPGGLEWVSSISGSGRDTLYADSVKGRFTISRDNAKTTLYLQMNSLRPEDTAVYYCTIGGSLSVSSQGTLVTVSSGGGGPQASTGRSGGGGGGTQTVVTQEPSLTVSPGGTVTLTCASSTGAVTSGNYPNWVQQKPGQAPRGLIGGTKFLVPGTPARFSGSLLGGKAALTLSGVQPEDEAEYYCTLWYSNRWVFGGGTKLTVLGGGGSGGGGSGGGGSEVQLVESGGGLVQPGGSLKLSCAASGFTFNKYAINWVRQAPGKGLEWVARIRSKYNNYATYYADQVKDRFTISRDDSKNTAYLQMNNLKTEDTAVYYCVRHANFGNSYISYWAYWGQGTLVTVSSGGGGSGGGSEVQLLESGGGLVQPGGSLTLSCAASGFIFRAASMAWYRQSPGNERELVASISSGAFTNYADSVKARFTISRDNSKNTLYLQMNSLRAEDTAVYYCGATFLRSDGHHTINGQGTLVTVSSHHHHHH
The experiment is described as follows: binding assay with kinetics, affinity summary (instrument not stated).

Experiment [3] deals with T3, EpCAM H90.2 Mask27 L040 (EpCAM targeting ProTriTAC with H90.2).
T3 construct: trispecific prodrug; also called H90.2 ProTriTAC (L040)
T3 sequence (chain, as listed by the source): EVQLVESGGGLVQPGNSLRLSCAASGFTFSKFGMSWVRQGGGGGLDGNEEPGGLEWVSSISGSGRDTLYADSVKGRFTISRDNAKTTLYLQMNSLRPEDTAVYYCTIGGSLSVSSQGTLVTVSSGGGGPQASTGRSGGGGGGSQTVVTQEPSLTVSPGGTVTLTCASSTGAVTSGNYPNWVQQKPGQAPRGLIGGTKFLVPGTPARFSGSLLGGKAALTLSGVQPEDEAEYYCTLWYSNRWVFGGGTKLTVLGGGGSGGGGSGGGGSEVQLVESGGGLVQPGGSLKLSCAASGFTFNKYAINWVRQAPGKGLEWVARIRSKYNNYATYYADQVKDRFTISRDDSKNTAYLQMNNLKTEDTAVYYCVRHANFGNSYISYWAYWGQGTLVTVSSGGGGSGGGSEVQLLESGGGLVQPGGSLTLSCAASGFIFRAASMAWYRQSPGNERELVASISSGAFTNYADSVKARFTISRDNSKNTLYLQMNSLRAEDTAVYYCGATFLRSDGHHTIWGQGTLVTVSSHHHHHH
The description is as above.

T1 sequence (chain, as listed by the source): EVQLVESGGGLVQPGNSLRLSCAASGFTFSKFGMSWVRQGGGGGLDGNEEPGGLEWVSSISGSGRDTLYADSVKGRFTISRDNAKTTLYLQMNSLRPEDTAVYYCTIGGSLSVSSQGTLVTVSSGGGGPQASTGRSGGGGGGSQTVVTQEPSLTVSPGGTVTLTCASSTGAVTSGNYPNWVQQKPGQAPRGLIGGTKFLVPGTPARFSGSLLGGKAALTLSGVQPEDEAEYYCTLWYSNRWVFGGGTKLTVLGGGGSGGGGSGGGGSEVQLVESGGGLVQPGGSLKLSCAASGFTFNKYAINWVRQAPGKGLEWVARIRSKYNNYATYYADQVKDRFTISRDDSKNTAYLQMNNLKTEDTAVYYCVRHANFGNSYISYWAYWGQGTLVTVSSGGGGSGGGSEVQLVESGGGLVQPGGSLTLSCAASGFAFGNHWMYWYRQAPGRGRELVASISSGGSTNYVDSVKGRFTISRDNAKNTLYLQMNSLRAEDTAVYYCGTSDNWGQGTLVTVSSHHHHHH

B1: mouse EpCAM (other)
chain: QRDCVCDNYKLATSCSLNEYGECQCTSYGTQNTVICSKLASKCLAMKAEMTHSKSGRRIKPEGAIQNNDGLYDPDCDEQGLFKAKQCNGTATCWCVNTAGVRRTDKDTEITCSERVRTYWIIIELKHKERESPYDHQSLQTALQEAFTSRYKLNQKFIKNIMYENNVITIDLMQNSSQKTQDDVDIADVAYYFEKDVKGESLFHSSKSMDLRVNGEPLDLDPGQTLIYYVDEKAPEFSMQGLT
modifications: biotinylated
notes: also called muEpCAM (biotinylated version of mouse EpCAM antigen)
B1: the binding result in experiment [1] is listed as “no binding”. For the same molecule, the Kd stood at 0.26 nM in experiment [2] and 0.15 nM in experiment [3].
